Data taken from paper PMC10540216, “Activity Guided Azide-methyllysine Photo-trapping for Substrate Profiling of Lysine Demethylases” (Journal of the American Chemical Society, 2023).

What follows are molecules tested on KDM4A-I71AzF (assay: CASI: photo-crosslinking with HEK293T cell extracts, StrepTactin enrichment and LC-MS/MS proteomics). Conditions: sheet "Final results but with 0.01".
Type: binding, human
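Also: lysates from HEK293T cells pretreated with a KDM4 inhibitor to raise proteome methylation, affinity-purified after ±UV, gel-resolved, trypsin-digested, with exclusive unique peptides per protein averaged per condition.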

Molecule	Fold change (+UV/-UV)
NOMO1_HUMAN (protein, UniProt Q15155 32-1222, looked up) BOS complex subunit NOMO1: SEDIVVGCGGFVKSDVEINYSLIEIKLYTKHGTLKYQTDCAPNNGYFMIPLYDKGDFILKIEPPLGWSFEPTTVELHVDGVSDICTKGGDINFVFTGFSVNGKVLSKGQPLGPAGVQVSLRNTGTEAKIQSTVTQPGGKFAFFKVLPGDYEILATHPTWALKEASTTVRVTNSNANAASPLIVAGYNVSGSVRSDGEPMKGVKFLLFSSLVTKEDVLGCNVSPVPGFQPQDESLVYLCYTVSREDGSFSFYSLPSGGYTVIPFYRGERITFDVAPSRLDFTVEHDSLKIEPVFHVMGFSVTGRVLNGPEGDGVPEAVVTLNNQIKVKTKADGSFRLENITTGTYTIHAQKEHLYFETVTIKIAPNTPQLADIIATGFSVCGQISIIRFPDTVKQMNKYKVVLSSQDKDKSLVTVETDAHGSFCFKAKPGTYKVQVMVPEAETRAGLTLKPQTFPLTVTNRPMMDVAFVQFLASVSGKVSCLDTCGDLLVTLQSLSRQGEKRSLQLSGKVNAMTFTFDNVLPGKYKISIMHEDWCWKNKSLEVEVLEDDMSAVEFRQTGYMLRCSLSHAITLEFYQDGNGRENVGIYNLSKGVNRFCLSKPGVYKVTPRSCHRFEQAFYTYDTSSPSILTLTAIRHHVLGTITTDKMMDVTVTIKSSIDSEPALVLGPLKSVQELRREQQLAEIEARRQEREKNGNEEGEERMTKPPVQEMVDELQGPFSYDFSYWARSGEKITVTPSSKELLFYPPSMEAVVSGESCPGKLIEIHGKAGLFLEGQIHPELEGVEIVISEKGASSPLITVFTDDKGAYSVGPLHSDLEYTVTSQKEGYVLTAVEGTIGDFKAYALAGVSFEIKAEDDQPLPGVLLSLSGGLFRSNLLTQDNGILTFSNLSPGQYYFKPMMKEFRFEPSSQMIEVQEGQNLKITITGYRTAYSCYGTVSSLNGEPEQGVAMEAVGQNDCSIYGEDTVTDEEGKFRLRGLLPGCVYHVQLKAEGNDHIERALPHHRVIEVGNNDIDDVNIIVFRQINQFDLSGNVITSSEYLPTLWVKLYKSENLDNPIQTVSLGQSLFFHFPPLLRDGENYVVLLDSTLPRSQYDYILPQVSFTAVGYHKHITLIFNPTRKLPEQDIAQGSYIALPLTLLVLLAGYNHDKLIPLLLQLTSRLQGVRALGQAASDNSGPEDAKRQAKKQKTRRT	0
RB12B_HUMAN (protein, UniProt Q8IXT5 1-1001, looked up) RNA-binding protein 12B: MAVVIRLLGLPFIAGPVDIRHFFTGLTIPDGGVHIIGGEIGEAFIIFATDEDARRAISRSGGFIKDSSVELFLSSKAEMQKTIEMKRTDRVGRGRPGSGTSGVDSLSNFIESVKEEASNSGYGSSINQDAGFHTNGTGHGNLRPRKTRPLKAENPYLFLRGLPYLVNEDDVRVFFSGLCVDGVIFLKHHDGRNNGDAIVKFASCVDASGGLKCHRSFMGSRFIEVMQGSEQQWIEFGGNAVKEGDVLRRSEEHSPPRGINDRHFRKRSHSKSPRRTRSRSPLGFYVHLKNLSLSIDERDLRNFFRGTDLTDEQIRFLYKDENRTRYAFVMFKTLKDYNTALSLHKTVLQYRPVHIDPISRKQMLKFIARYEKKRSGSLERDRPGHVSQKYSQEGNSGQKLCIYIRNFPFDVTKVEVQKFFADFLLAEDDIYLLYDDKGVGLGEALVKFKSEEQAMKAERLNRRRFLGTEVLLRLISEAQIQEFGVNFSVMSSEKMQARSQSRERGDHSHLFDSKDPPIYSVGAFENFRHQLEDLRQLDNFKHPQRDFRQPDRHPPEDFRHSSEDFRFPPEDFRHSPEDFRRPREEDFRRPSEEDFRRPWEEDFRRPPEDDFRHPREEDWRRPLEEDWRRPLEEDFRRSPTEDFRQLPEEDFRQPPEEDLRWLPEEDFRRPPEEDWRRPPEEDFRRPLQGEWRRPPEDDFRRPPEEDFRHSPEEDFRQSPQEHFRRPPQEHFRRPPPEHFRRPPPEHFRRPPPEHFRRPPPEHFRRPPPEHFRRPPPEHFRRPPQEHFRRPPQEHFRRSREEDFRHPPDEDFRGPPDEDFRHPPDEDFRSPQEEDFRCPSDEDFRQLPEEDLREAPEEDPRLPDNFRPPGEDFRSPPDDFRSHRPFVNFGRPEGGKFDFGKHNMGSFPEGRFMPDPKINCGSGRVTPIKIMNLPFKANVNEILDFFHGYRIIPDSVSIQYNEQGLPTGEAIVAMINYNEAMAAIKDLNDRPVGPRKVKLTLL	0.8462
RBM26_HUMAN (protein, UniProt Q5T8P6 1-1007, looked up) RNA-binding protein 26: MVSKMIIENFEALKSWLSKTLEPICDADPSALAKYVLALVKKDKSEKELKALCIDQLDVFLQKETQIFVEKLFDAVNTKSYLPPPEQPSSGSLKVEFFPHQEKDIKKEEITKEEEREKKFSRRLNHSPPQSSSRYRENRSRDERKKDDRSRKRDYDRNPPRRDSYRDRYNRRRGRSRSYSRSRSRSWSKERLRERDRDRSRTRSRSRTRSRERDLVKPKYDLDRTDPLENNYTPVSSVPSISSGHYPVPTLSSTITVIAPTHHGNNTTESWSEFHEDQVDHNSYVRPPMPKKRCRDYDEKGFCMRGDMCPFDHGSDPVVVEDVNLPGMLPFPAQPPVVEGPPPPGLPPPPPILTPPPVNLRPPVPPPGPLPPSLPPVTGPPPPLPPLQPSGMDAPPNSATSSVPTVVTTGIHHQPPPAPPSLFTADTYDTDGYNPEAPSITNTSRPMYRHRVHAQRPNLIGLTSGDMDLPPREKPPNKSSMRIVVDSESRKRTIGSGEPGVPTKKTWFDKPNFNRTNSPGFQKKVQFGNENTKLELRKVPPELNNISKLNEHFSRFGTLVNLQVAYNGDPEGALIQFATYEEAKKAISSTEAVLNNRFIKVYWHREGSTQQLQTTSPKVMQPLVQQPILPVVKQSVKERLGPVPSSTIEPAEAQSASSDLPQNVTKLSVKDRLGFVSKPSVSATEKVLSTSTGLTKTVYNPAALKAAQKTLLVSTSAVDNNEAQKKKQEALKLQQDVRKRKQEILEKHIETQKMLISKLEKNKTMKSEDKAEIMKTLEVLTKNITKLKDEVKAASPGRCLPKSIKTKTQMQKELLDTELDLYKKMQAGEEVTELRRKYTELQLEAAKRGILSSGRGRGIHSRGRGAVHGRGRGRGRGRGVPGHAVVDHRPRALEISAFTESDREDLLPHFAQYGEIEDCQIDDSSLHAVITFKTRAEAEAAAVHGARFKGQDLKLAWNKPVTNISAVETEEVEPDEEEFQEESLVDDSLLQDDDEEEEDNESRSWRR	0.3333
CAND1_HUMAN (protein, UniProt Q86VP6 2-1230, looked up) Cullin-associated …: ASASYHISNLLEKMTSSDKDFRFMATNDLMTELQKDSIKLDDDSERKVVKMILKLLEDKNGEVQNLAVKCLGPLVSKVKEYQVETIVDTLCTNMLSDKEQLRDISSIGLKTVIGELPPASSGSALAANVCKKITGRLTSAIAKQEDVSVQLEALDIMADMLSRQGGLLVNFHPSILTCLLPQLTSPRLAVRKRTIIALGHLVMSCGNIVFVDLIEHLLSELSKNDSMSTTRTYIQCIAAISRQAGHRIGEYLEKIIPLVVKFCNVDDDELREYCIQAFESFVRRCPKEVYPHVSTIINICLKYLTYDPNYNYDDEDEDENAMDADGGDDDDQGSDDEYSDDDDMSWKVRRAAAKCLDAVVSTRHEMLPEFYKTVSPALISRFKEREENVKADVFHAYLSLLKQTRPVQSWLCDPDAMEQGETPLTMLQSQVPNIVKALHKQMKEKSVKTRQCCFNMLTELVNVLPGALTQHIPVLVPGIIFSLNDKSSSSNLKIDALSCLYVILCNHSPQVFHPHVQALVPPVVACVGDPFYKITSEALLVTQQLVKVIRPLDQPSSFDATPYIKDLFTCTIKRLKAADIDQEVKERAISCMGQIICNLGDNLGSDLPNTLQIFLERLKNEITRLTTVKALTLIAGSPLKIDLRPVLGEGVPILASFLRKNQRALKLGTLSALDILIKNYSDSLTAAMIDAVLDELPPLISESDMHVSQMAISFLTTLAKVYPSSLSKISGSILNELIGLVRSPLLQGGALSAMLDFFQALVVTGTNNLGYMDLLRMLTGPVYSQSTALTHKQSYYSIAKCVAALTRACPKEGPAVVGQFIQDVKNSRSTDSIRLLALLSLGEVGHHIDLSGQLELKSVILEAFSSPSEEVKSAASYALGSISVGNLPEYLPFVLQEITSQPKRQYLLLHSLKEIISSASVVGLKPYVENIWALLLKHCECAEEGTRNVVAECLGKLTLIDPETLLPRLKGYLISGSSYARSSVVTAVKFTISDHPQPIDPLLKNCIGDFLKTLEDPDLNVRRVALVTFNSAAHNKPSLIRDLLDTVLPHLYNETKVRKELIREVEMGPFKHTVDDGLDIRKAAFECMYTLLDSCLDRLDIFEFLNHVEDGLKDHYDIKMLTFLMLVRLSTLCPSAVLQRLDRLVEPLRATCTTKVKANSVKQEFEKQDELKRSAMRAVAALLTIPEAEKSPLMSEFQSQISSNPELAAIFESIQKDSSSTNLESMDTS	0.3333
RBM10_HUMAN (protein, UniProt P98175 1-930, looked up) RNA-binding protein 10: MEYERRGGRGDRTGRYGATDRSQDDGGENRSRDHDYRDMDYRSYPREYGSQEGKHDYDDSSEEQSAEDSYEASPGSETQRRRRRRHRHSPTGPPGFPRDGDYRDQDYRTEQGEEEEEEEDEEEEEKASNIVMLRMLPQAATEDDIRGQLQSHGVQAREVRLMRNKSSGQSRGFAFVEFSHLQDATRWMEANQHSLNILGQKVSMHYSDPKPKINEDWLCNKCGVQNFKRREKCFKCGVPKSEAEQKLPLGTRLDQQTLPLGGRELSQGLLPLPQPYQAQGVLASQALSQGSEPSSENANDTIILRNLNPHSTMDSILGALAPYAVLSSSNVRVIKDKQTQLNRGFAFIQLSTIVEAAQLLQILQALHPPLTIDGKTINVEFAKGSKRDMASNEGSRISAASVASTAIAAAQWAISQASQGGEGTWATSEEPPVDYSYYQQDEGYGNSQGTESSLYAHGYLKGTKGPGITGTKGDPTGAGPEASLEPGADSVSMQAFSRAQPGAAPGIYQQSAEASSSQGTAANSQSYTIMSPAVLKSELQSPTHPSSALPPATSPTAQESYSQYPVPDVSTYQYDETSGYYYDPQTGLYYDPNSQYYYNAQSQQYLYWDGERRTYVPALEQSADGHKETGAPSKEGKEKKEKHKTKTAQQIAKDMERWARSLNKQKENFKNSFQPISSLRDDERRESATADAGYAILEKKGALAERQHTSMDLPKLASDDRPSPPRGLVAAYSGESDSEEEQERGGPEREEKLTDWQKLACLLCRRQFPSKEALIRHQQLSGLHKQNLEIHRRAHLSENELEALEKNDMEQMKYRDRAAERREKYGIPEPPEPKRRKYGGISTASVDFEQPTRDGLGSDNIGSRMLQAMGWKEGSGLGRKKQGIVTPIEAQTRVRGSGLGARGSSYGVTSTESYKETLHKTMVTRFNEAQ	0
